Experimental findings from the RNAGym collection of RNA variant scans (doi:10.7554/elife.80360) are described below.

B1: HDV Ribozyme (parent)
chain: GGCCGGCAUGGUCCCAGCCUCCUCGCUGGCGCCGGCUGGGCAACAUUCCGAGGGGACCGUCCCCUCGGUAAUGGCGAAUGGGACCCA

In this data set the parent is B1. Put plainly: self-cleavage, relative activity (ratio to wild type); higher = more cleavage; co-transcriptional.
Consider C13G A78G, for which the self-cleavage is 0.111. The result for U12G A42G reads 0.369; that for U12G A42U, 0.415. As for U12G U79A, the self-cleavage came out at 0.939. The result for U12G U79G reads 0.639; that for U12C C57A, 0.268. For the variant U12G G25U, the self-cleavage came out at 0.0573.

Regarding C13U G35C, the self-cleavage turned out to be 0.166. Next, C13U G35A: 0.272; C13U G35U: 0.163.

Consider U12C C58A, for which the self-cleavage is 0.475.

U12A U23A: the self-cleavage was determined as 0.192.

In the case of C13U C32A, the self-cleavage is 0.172. Next, C13U U79C: 0.103; C13U U79G: 0.0519.

As for C14A C15U, the self-cleavage was determined as 0.192. C13U G67U: the self-cleavage was determined as 0.712. The result for C14A A16G reads 0.776; that for U12A U37G, 0.0536. The result for C13A A45G reads 0.158. Turning to C13A A16U, the self-cleavage was 0.536. The result for C14A C66A reads 0.578; that for C14A C66G, 0.57.

For U12G, the self-cleavage worked out at 0.922. On to U12C, for which the self-cleavage turned out to be 0.399. With C14A C22A, the self-cleavage came to 0.0692. For C13G U60G, the self-cleavage came to 0. With U12G C13A, the self-cleavage amounted to 0.415. Next, C13A U65G: 0.208. Regarding C13A G28A, the self-cleavage turned out to be 0.0875.

In the case of C13A G28U, the self-cleavage came to 0.172. The result for U12G C41U reads 0.982; that for U12G G52C, 0.937; that for U12G C57U, 0.831. Next, C13U G28C: 0; U12G G50A: 0.787; C13G U23A: 0.151.

Consider C13G U23C, for which the self-cleavage came to 0. Consider C13G G59U, for which the self-cleavage was determined as 0.0811. Turning to C13G G59A, the self-cleavage came to 0.148.

In the case of U12G C14U, the self-cleavage was 1.2. With U12A G80U, the self-cleavage was 0.0968. Take C13U C61A: the self-cleavage amounted to 0.47. Next, C13U C61U: 0.77. Next, C13G U65A: 0.101; C13G U65C: 0.095. Next, C13A G35U: 0.125; U12G C21U: 0.123. C14A A45C: the self-cleavage came to 0.199.

With U12A G82A, the self-cleavage is 0.0489.

For U12G U69A, the self-cleavage was 0.997.

Turning to C13A U79A, the self-cleavage came out at 0.119. Next, U12C C49A: 0.322; U12C C49G: 0.199; U12C C49U: 0.166. The result for C13A C62G reads 0.287.

For the variant U12C U23A, the self-cleavage came out at 0.0594.

Consider C13U G53A, for which the self-cleavage amounted to 0.77.

Regarding U12A G38C, the self-cleavage was 0.0489.

As for U12A G38A, the self-cleavage came out at 0. For the variant C13A C33G, the self-cleavage is 0.175.

Regarding U12G G34A, the self-cleavage is 0.0791. As to C13U U69C, the self-cleavage was 0.88.

Take C13A A56C: the self-cleavage came to 0.156.

As for U12C C33A, the self-cleavage is 0.0386. The result for C13U G52A reads 0.682; that for C13U G52U, 0.394.

Regarding U12C G34C, the self-cleavage stood at 0.115. Next, C13G C36U: 0.0369.

In the case of C13G C36A, the self-cleavage is 0.0449.

U12C U46A: the self-cleavage amounted to 0. Regarding U12C U46G, the self-cleavage came out at 0.0665. Turning to U12A C63A, the self-cleavage was 0.519.

For the variant U12A C63U, the self-cleavage turned out to be 0.453. The result for C13U C14A reads 0.155.

Regarding C13U C14G, the self-cleavage is 0.391.

Regarding C13G C86U, the self-cleavage came out at 0.151. In the case of C13U A83G, the self-cleavage stood at 0.122. With C13U A83U, the self-cleavage was 0.185.

With C14A C57A, the self-cleavage was determined as 0.745. As for U12A C58G, the self-cleavage was found to be 0.383. As for U12A C58A, the self-cleavage is 0.312. The result for C14A C64A reads 0.793; that for C13G A70U, 0.123; that for C13G G39A, 0.0332. Next, C13A C49A: 0.0489; C13G C33G: 0.0462. The result for U12C G52C reads 0.287. Consider U12G C75A, for which the self-cleavage was 0. Next, C13A C18A: 0.169; U12C G39U: 0.0723. Next, C13G G25A: 0; C13G G50U: 0.0426.

For the variant C13U C57U, the self-cleavage amounted to 0.853. For the variant C13U G80U, the self-cleavage is 0.185.

Turning to U12A G17A, the self-cleavage worked out at 0.19. The result for C14A A83G reads 0.475; that for C13A G29C, 0; that for C13G U46G, 0.0554. For the variant C13G U46C, the self-cleavage was 0.18. Take U12G G59U: the self-cleavage was 0.973. The result for C13U G17U reads 0.612; that for C13U G17A, 0.623; that for C13G A71G, 0. C13G A71U: the self-cleavage was determined as 0. With C14A C30A, the self-cleavage was found to be 0.104.

For the variant C14A C30G, the self-cleavage was 0. As to C13G A51C, the self-cleavage stood at 0.0723.

As to C13U U65G, the self-cleavage was determined as 0.895.

Turning to C13U U65C, the self-cleavage was 0.604.

In the case of U12G A77C, the self-cleavage is 0.

With U12A G81A, the self-cleavage was 0.0554. The result for C13G C24A reads 0.0594; that for C13G C24U, 0.0504; that for U12C C86U, 0.578. As for U12G A56C, the self-cleavage was 0.831. Regarding C13U G68A, the self-cleavage is 0.502. As to U12C C85G, the self-cleavage is 0.447.

U12C G25U: the self-cleavage stood at 0.0369.

Consider U12C U72C, for which the self-cleavage was 0.196. Next, C13A C85A: 0.19; C13A C86U: 0.242.

As for C13G U27C, the self-cleavage came to 0.262. Next, C14A A56U: 0.688; C13A C63A: 0.155; U12G C49A: 0.935.

On to U12C G28C, for which the self-cleavage is 0. Next, U12C G28A: 0.0707; C14A C58G: 0.762; C13U C66A: 0.54. On to U12C A83G, for which the self-cleavage stood at 0.85. The result for U12C A83C reads 0.166. Turning to C13A C41G, the self-cleavage is 0.0504. The result for U12C A70G reads 0.692; that for C14A C36A, 0. Take C13U G39U: the self-cleavage came to 0.495. The result for C13A A42G reads 0.142. As to C13A A42U, the self-cleavage was 0.0845. The result for C13U A78U reads 0; that for C13G G53C, 0.123. The result for C13G C63G reads 0.133; that for C13A U37C, 0.131. As for U12A G55A, the self-cleavage turned out to be 0.415. Consider U12A G55U, for which the self-cleavage is 0.185. Next, C14A A87U: 0.623. The result for U12C U60C reads 0.594; that for U12C U60G, 0.399; that for C13U C75A, 0.148.

Regarding C13U C75U, the self-cleavage was 0.0314. As to C14A A51C, the self-cleavage was 0.959. Take U12A G29C: the self-cleavage turned out to be 0.0386. For the variant C13G G76A, the self-cleavage was 0. Next, C13U G31U: 0.185; C13A C58G: 0.0639; C13A C58A: 0.155. As for U12G G38U, the self-cleavage came to 0.0755.

As for U12G G38C, the self-cleavage amounted to 0.178. The result for U12A G52A reads 0.364; that for C13U U23C, 0.415.

As to U12C U47C, the self-cleavage worked out at 0.185. With U12A U69C, the self-cleavage is 0.35. In the case of U12A U69G, the self-cleavage came out at 0.795. Next, C13A C14G: 0.0978; C13A C14U: 0.18. The result for U12C A71G reads 0.287; that for U12C A71C, 0.0831. The result for U12C C64G reads 0.308.
